Results: US20070092449A1

Target: TrkB receptor (mouse neuromuscular junction) (mouse) (UniProt P15209)
Assay: cell-based or functional assay

UniProt P15209, sequence (P15209 32-821): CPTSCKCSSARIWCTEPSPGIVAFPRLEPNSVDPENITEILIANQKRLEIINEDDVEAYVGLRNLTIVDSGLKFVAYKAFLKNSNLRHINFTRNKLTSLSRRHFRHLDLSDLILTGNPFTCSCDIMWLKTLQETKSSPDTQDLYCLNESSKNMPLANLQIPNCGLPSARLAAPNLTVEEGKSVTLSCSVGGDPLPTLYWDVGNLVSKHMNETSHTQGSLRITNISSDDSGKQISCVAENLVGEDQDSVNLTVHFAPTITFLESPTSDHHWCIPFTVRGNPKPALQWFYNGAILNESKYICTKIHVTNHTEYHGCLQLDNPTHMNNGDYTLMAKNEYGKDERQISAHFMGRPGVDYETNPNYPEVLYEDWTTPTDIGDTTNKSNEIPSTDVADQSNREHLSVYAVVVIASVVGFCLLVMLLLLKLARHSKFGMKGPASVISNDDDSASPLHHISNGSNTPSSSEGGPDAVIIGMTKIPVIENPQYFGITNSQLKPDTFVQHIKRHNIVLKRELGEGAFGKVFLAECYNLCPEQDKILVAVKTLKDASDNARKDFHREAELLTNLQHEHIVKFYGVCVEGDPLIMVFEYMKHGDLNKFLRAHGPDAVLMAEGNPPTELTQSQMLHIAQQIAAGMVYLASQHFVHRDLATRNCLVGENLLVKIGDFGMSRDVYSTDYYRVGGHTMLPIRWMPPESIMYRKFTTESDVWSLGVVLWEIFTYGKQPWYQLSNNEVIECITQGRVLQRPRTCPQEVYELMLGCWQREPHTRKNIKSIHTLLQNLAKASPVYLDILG

Row | Substance | GFP-TTC localization at the NMJ [fold] | elevation in the level of GFP-TTC concentration at the NMJ (100 ng BDNF) [fold] | elevation in the level of GFP-TTC concentration at the NMJ (250 ng BDNF) [fold] | increase of GFP-TTC signal at the NMJ after BoTx/A block [fold]
1 | recombinant human NT-4 (Alomone labs) (from UniProt P34130 81-210) (ligand) | 1.54 |  |  | 
2 | recombinant human BDNF (Alomone labs) (from UniProt P23560 129-247) (ligand) |  | 1.72 | 1.15 | 2.05
